Test results as given in US20260116991A1 (HAINAN SIMCERE ZAIMING PHARMACEUTICAL, published 2026).
Like-named read-outs stand apart in the source and are kept apart here.

Columns and labels:
[1] = target: T1, monkey GPC3 on HEK293T-monkey GPC3 cells (monkey); assay: FACS on HEK293T-monkey GPC3 cells
T1 construct: whole, on cells

human GPC3-His protein [2] = target: T2, human GPC3-His protein (human, UniProt P51654 25-559, limits assumed); assay: SPR, antibody captured on Protein A chip, human GPC3-His injected, 1:1 Langmuir model;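 note: flow cell at 25 °C, antigen injected for 240 s at five twofold dilutions starting at 200 nM, dissociation followed up to 600 s, double-referenced sensorgrams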
T2 construct: also called human GPC3 protein; not shown: His tag

[3] = target: T3, monkey GPC3 on HEK293T-monkey GPC3 cells (monkey); assay: FACS on HEK293T-monkey GPC3 cells; remark: listed apart in the source
T3 construct: whole, on cells
Method: The desired cells were expanded to a logarithmic growth phase in a T-75 cell culture flask, the medium was removed by pipetting, and the cells were washed twice with a PBS buffer, and digested with trypsin. Then a complete medium was added to stop the digestion, and the cells were blown into a single cell suspension. After counting, the cells were centrifuged, and the cell pellet was resuspended with an FACS buffer (PBS+2% fetal bovine serum) to 2×10⁶ cells/mL. The cell resuspension solution was added to a 96-well FACS reaction plate at 50 μl/well, and a chimeric antibody sample to be tested was added at 50 μl/well for incubation at 4° C. for 1 h. […] After the plate was centrifuged and washed 3 times with a PBS buffer, 100 μl of the resulting solution was assayed and analyzed by FACS (FACS Canto™, purchased from BD Biosciences). Data analysis was performed by software (FlowJo) to obtain the mean fluorescence intensity (MFI) of the cells. Then, analysis was performed by software (GraphPad Prism8), data were fitted, and EC₅₀ values were calculated.

monkey GPC3-His protein [4] = target: T4, monkey GPC3-His protein (monkey); assay: SPR, antibody captured on Protein A chip, monkey GPC3-His analyte;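 note: run at 25 °C with 240 s association and up to 600 s dissociation, double-referenced, kinetics fitted to a 1:1 Langmuir binding model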
T4 construct: Bought recombinant protein; also called monkey GPC3 protein
Method: The flow cell was set at 25° C. The sample block was set at 16° C. Both were pretreated with the running buffer. In each cycle, first, the antibody to be tested was captured using the Protein A chip, and then a single concentration of GPC3 antigen protein was injected. […] The association was determined by injecting different concentrations of human GPC3-His in the solution and maintaining for 240 s, wherein the flow rate was 30 μL/min, and the protein was diluted at a 1:1 dilution ratio from 200 nM to obtain 5 concentrations in total. The dissociation phase was monitored for up to 600 s and triggered by switching from the sample solution to the running buffer. The surface was regenerated by washing with 10 mM glycine solution (pH 1.5) at a flow rate of 30 μL/min for 30 s. The difference in bulk refractive index was corrected by subtracting the responses obtained from the goat anti-human Fc surface. Blank injections (double reference) were also subtracted. To calculate the apparent KD and other kinetic parameters, the Langmuir 1:1 model was used.

monkey GPC3-His protein [5] = target: T4, monkey GPC3-His protein; assay: ELISA, monkey GPC3-His coated;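 note: Plate-coated antigen at 1 µg/mL, antibody binding 2 h at 37 °C, detected with HRP-labeled secondary antibody and TMB, absorbance at 450 nm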
Method: The specific method is described as follows: The antigen protein was diluted with PBS to a final concentration of 1 μg/mL, and the diluent was added to a 96-well ELISA plate at 50 μL/well. The plate was sealed with a plastic film and incubated at 4° C. overnight, washed twice with PBS the next day, and a blocking solution [PBS+2% (w/w) BSA] was added for blocking at room temperature for 2 h. […] After incubation at 37° C. for 2 h, the plate was washed 3 times with PBS. A horseradish peroxidase (HRP)-labeled secondary antibody (purchased from Merck, Cat. No. AP113P) was added for incubation at 37° C. for 1 h, and the plate was washed 5 times with PBS. A TMB substrate was added at 50 μL/well for incubation at room temperature for 10 min, then a stop solution (1.0M HCl) was added at 50 μL/well. An ELISA plate reader (Multimode Plate Reader, EnSight, purchased from Perkin Elmer) was used to read OD_{450 nm} values, with results as shown in Table 4 to Table 6, FIG. 1A, FIG. 1B, and FIG. 1C.

human GPC3-His protein [6] = target: T5, human GPC3-His protein (human, UniProt P51654 25-559); assay: SPR, antibody captured on Protein A chip, human GPC3-His analyte;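 note: measured at 25 °C flow cell, human GPC3-His injected at five concentrations up to 200 nM, 240 s association, up to 600 s dissociation, double-referenced, fitted to Langmuir 1:1 model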
T5 construct: also called human GPC3 protein; not shown: His tag

Binder	EC50 [1] [nM]	Max MFI [1] [MFI]	Kd (human GPC3-His protein [2]) [nM]	koff (human GPC3-His protein [2]) [s⁻¹]	kon (human GPC3-His protein [2]) [M⁻¹ s⁻¹]	EC50 [3] [nM]	Max MFI [3] [MFI]	Kd (monkey GPC3-His protein [4]) [nM]	koff (monkey GPC3-His protein [4]) [s⁻¹]	kon (monkey GPC3-His protein [4]) [M⁻¹ s⁻¹]	OD450 at 0.0001 nM (monkey GPC3-His protein [5]) [OD450]	OD450 at 0.001 nM (monkey GPC3-His protein [5]) [OD450]	OD450 at 0.01 nM (monkey GPC3-His protein [5]) [OD450]	OD450 at 0.1 nM (monkey GPC3-His protein [5]) [OD450]	OD450 at 1 nM (monkey GPC3-His protein [5]) [OD450]	OD450 at 10 nM (monkey GPC3-His protein [5]) [OD450]	OD450 at 100 nM (monkey GPC3-His protein [5]) [OD450]	Kd (human GPC3-His protein [6]) [nM]	koff (human GPC3-His protein [6]) [s⁻¹]	kon (human GPC3-His protein [6]) [M⁻¹ s⁻¹]
hAb001H1L1b (antibody, human IgG1, V domains shown, Humanized F2.169.2) VH: EVQLVESGGGLVQPGGSLRLSCAASGFSFNTNAMNWVRQAPGKGLEWVGRIRSKSNNYATYYADSVKDRFTISRDDSKNSLYLQMNSLKTEDTAVYYCVRDGYYVLFAYWGQGTLVTVSS VL: DIVMTQTPLSLPVTPGEPASISCRFSQSIVNSNANTYLEWFLQKPGQSPQLLIYKVSNRFSGVPDRFSGSGSGTDFTLKISRVEAEDVGVYYCFQGSHVPFTFGQGTKLEIK	1.54	32900	19.8	0.937	4.74e+07															
hAb001H1aL1 (antibody, human IgG1, V domains shown, Humanized F2.169.2) VH: EVQLVESGGGLVQPGGSLRLSCAASGFSFNTNAMNWVRQAPGKGLEWVGRIRSKSNNYATYYADSVKGRFTISRDDSKNSLYLQMNSLKTEDTAVYYCVRDGYYVLFAYWGQGTLVTVSS VL: DIVMTQTPLSLPVTPGEPASISCRFSQSIVNSNGNTYLEWFLQKPGQSPQLLIYKVSNRFSGVPDRFSGSGSGTDFTLKISRVEAEDVGVYYCFQGSHVPFTFGQGTKLEIK	1	34000	27	0.0701	2.6e+06															
F3.54.12 (antibody, human IgG1, kappa, V domains shown, Human-murine chimeric antibody) VH: QVQLQQSGAELVRPGASVKLSCKASGYTFTDYEMHWVKQTPVHGLEWIGAIDPETGNTAYIQKFKGKATLTTDKSSSTAYMELRSLTSEDSAVYYCTRFYSYSHWGQGTTLTVSS VL: DVVMTQTPLSLPVSLGDQASISCRSSQSLVHSNGNTYLHWYLQKPGQSPKLLIYKVSNRFSGVPDRFSGSSSGTDFTLKISRVEAEDLGVYFCSQNTHVPPTFGGGTKLEIKR						0.72	115000	2.17	0.00117	541000	0.08	0.1	0.41	1.57	2.21	2.32	2.76	4.09	0.00112	275000
F4.26.1 (antibody, human IgG1, kappa, V domains shown, Human-murine chimeric antibody) VH: QVQLKQSGPGLVQPSQSLSITCTVSGFSLTSYGVHWVRQSPGKGLEWLGVIWSSGNTDYNAVLISRLSIKKDDSKSQVFFKMNSPQVDDSAIYYCGRNGGWLLRGFMDFWGQGTSVTVSS VL: DVVMTQTPLSLPVSLGDQASISCRSSQSLLHSNGNTYLHWYLQRSGQSPNLLIYKVSNRFSGVPDRFSGGGSGTDFTLKISRVEAEDLGIYFCSQSTHVPWTFGGGTKLEIKR						1.21	50500	1.38	0.000587	425000	0.27	0.07	0.18	0.89	1.38	1.88	1.5	2.34	0.000461	197000
F4.18.4 (antibody, human IgG1, kappa, V domains shown, Human-murine chimeric antibody) VH: QVQLHQSGAEMAKPGASVNLSCKTSGFTFTDYGISWVKQRTRQGLEWIGDIYPRHINIYYNEKFKDKATLTADRSSSTAYMELRSMTSEDSAVYFCARRGTTGRGALDYWGQGTSLTVSS VL: DILLTQSPAILSVSPGERVSFSCRASQSIGTSIHWYQQRTNGSPRLLIKYAFESISGIPSRFGGSGSRTDFTLTINSVESEDIADYYCQQTYNWPYTFGGGTKLEIKR						0.89	52600	4.65	0.000552	119000	0.14	0.12	0.14	0.85	0.77	1.32	1.9	5.08	0.000443	87100
F4.13.7 (antibody, human IgG1, kappa, V domains shown, Human-murine chimeric antibody) VH: QVQLQQPGAELVKPGASVKLSCKASGYTFTNNWVHWVKQRPGQGLEWTGMIHPDSGSTIYNEKFQSKATLTVDKSSSTAYMQLSSLTSEDSAVYYCARGYYDSSSYYAMDYWGQGTSVTVSS VL: NIQMTQTTSSLSASLGDRVTISCSASQGIFNYLNWYQQKPDGTVKLLIYYTSSLHSGVPSRFSGSGSGTDYSLTISNLEPEDIATYYCQQYSKLPWTFGGGTKLEIKR						1.1	44100	31.4	0.00264	84000	0.05	0.08	0.36	1.55	2.34	2.4	2.44	32.3	0.00156	48400
F2.154.1 (antibody, human IgG1, kappa, V domains shown, Human-murine chimeric antibody) VH: QVQLQQSGAELVRPGASVKLSCKASGYRFTDYEMHWVKQTPVHGLEWIGTIDPETGNTAYTQKFMDKATLTADKSSSTAYMELRSLTSEDSAVYYCTRGYSFTYWGQGTLATVSA VL: DVLMTQTPLSLPVSLGDQASISCRSSQNIVHSNGNTYLQWYLQKPGQSPKLLIFKVSNRFSGVPDRFSGSGSGTDFTLKISRVEAEDLGVYYCFQGSHVPFTFGTGTKLEIKR						0.41	12400	0.706	0.000504	713000	0.05	0.1	0.46	1.69	2.38	2.49	2.24	1.21	0.000563	466000
F3.38.7 (antibody, human IgG1, kappa, V domains shown, Human-murine chimeric antibody) VH: QVQLQQSGAELVRPGASVKLSCKASGYTFTDYEIHWVKQTPVLGLEWIGAIDPKTGNTAYNQKFMGKATLTADKSSTTAYMDLRSLTSEDSAVYYCTRYFSFAYWGQGTLVTVSA VL: DVLMTQTPLSLPVSLGDQASISCRSSQTFVHSNGNTYLQWYLQKPGQSPKLLIYKVSNRFSGVPDRFSGSGSGTDFTLKISRVEAEDLGVYYCFQGSHVPYTFGSGTKLEIKR						0.85	110000	0.725	0.000386	532000	0.06	0.1	0.42	1.69	2.37	2.58	3.01	0.997	0.000361	362000
F3.81.19 (antibody, human IgG1, kappa, V domains shown, Human-murine chimeric antibody) VH: QVQLQQSGAELVRPGASVKLSCKASGYTFTDYEMHWVKQTPVHGLEWIGTIDPETGNTAYNQKFKGKATLTADKSSSTAYMELRSLTSEDSAVYYCTRPYSLTYWGQGTLVTVSA VL: DVLLTQTPLSLPVSLGDQASISCRSSQSFVHSNGDTYLQWYLQKPGQSPKLLIYKVSNRFSGVPDRFSGSGSGTDFTLKISRVEAEDLGVYYCFQGSHVPYTFGSGTKLEIKR						2.58	106000	0.415	0.000261	631000	0.05	0.06	0.16	0.62	1.96	2.55	2.49	0.545	0.000231	424000
F4.21.16 (antibody, human IgG1, kappa, V domains shown, Human-murine chimeric antibody) VH: DVQLQESGPGLVKPSQSLSLTCSVTGYSITSGYYWNWIRQFPGNKLEWMGYISYDVTVNYNPSLKNRISITRDTSKNQFFLKLNSVTTEDTATYYCATITSVASMDHWGQGTSVTVSS VL: DILMTQTPLSLPVSLGDQASISCRSSQNIVHRNGNTYLEWYLQKPGQSPKLLLYKVSNRFSGVPDRFSGSGSGTDFTLKISRVEAEDLGIYYCFQGSHFPFTFGSGTKLEIKR						3.25	50900	7.81	0.000303	38800	0.04	0.06	0.05	0.1	1.41	1.65	1.08	6.58	0.000267	40600
